From patent publication US20210102174A1 (TAIPEI VETERANS GENERAL HOSPITAL, published 2021)

B1: Flag-tagged Ash2l-N terminus (1-172, the PHD domain) (other, UniProt Q91X20 1-172, looked up)
chain: MAAAGAGPGPGVSAGPGPGAAASATTAEDRETEPVAAGAGEGPSAAPGAEPSSGEAESGDANLVDVSGLETESSNGKDTLEGTGDTSEVMDTQAGSVDEENGRQLGEVELQCGICTKWFTADTFGIDTSSCLPFMTNYSFHCNVCHHSGNTYFLRKQANLKEMCLSALANLT
notes: range 1-172; also called Flag-Ash2l-N; not shown: 3xFlag tag of the p3xFlag plasmid
B2: Nanog (endogenous, mouse embryonic stem cells) (other, UniProt Q80Z64 1-305, looked up)
chain: MSVGLPGPHSLPSSEEASNSGNASSMPAVFHPENYSCLQGSATEMLCTEAASPRPSSEDLPLQGSPDSSTSPKQKLSSPEADKGPEEEENKVLARKQKMRTVFSQAQLCALKDRFQKQKYLSLQQMQELSSILNLSYKQVKTWFQNQRMKCKRWQKNQWLKTSNGLIQKGSAPVEYPSIHCSYPQGYLVNASGSLSMWGSQTWTNPTWSSQTWTNPTWNNQTWTNPTWSSQAWTAQSWNGQPWNAAPLHNFGEDFLQPYVQLQQNFSASDLEVNLEATRESHAHFSTPQALELFLNYSVTPPGEI

Experiments:
[1] = target: Oct4 (endogenous, mouse embryonic stem cells) (mouse, UniProt P20263 1-352); experiment: co-IP of Flag-tagged Ash2l constructs from nuclear extracts, Western blot
Sequence of Oct4 (endogenous, mouse embryonic stem cells) (P20263 whole entry): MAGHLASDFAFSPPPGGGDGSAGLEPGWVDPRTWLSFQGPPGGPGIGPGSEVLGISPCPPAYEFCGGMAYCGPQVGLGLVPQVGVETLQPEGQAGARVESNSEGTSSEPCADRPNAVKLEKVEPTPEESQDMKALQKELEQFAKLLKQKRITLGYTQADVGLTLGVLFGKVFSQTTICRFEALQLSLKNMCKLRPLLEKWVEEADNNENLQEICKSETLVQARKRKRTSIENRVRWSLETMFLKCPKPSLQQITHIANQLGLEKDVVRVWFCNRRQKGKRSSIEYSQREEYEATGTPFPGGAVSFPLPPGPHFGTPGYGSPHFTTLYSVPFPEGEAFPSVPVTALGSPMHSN
Description: (§1) For samples from gel filtration, we used Centricon (Millipore) to concentrate and desalt the fraction of elute. Cleared sample solution was obtained by centrifugation at 12 000 rpm for 30 min at 4° C., and 0.5-1.5 mg of the sample was used for immunoprecipitations. For identify interacting complex of Ash2l protein, sample was added into primary antibody for 2 h at […] followed by 2 h of further incubation with protein A/G-Sepharose beads. After washing three times with the lysis buffer, immunoprecipitated proteins were eluted from the beads by boiling for 5 min in SDS-PAGE sample buffer and analyzed by immunoblotting.
(§2) To identify the domain(s) of Ash2l responsible for this protein interaction, we constructed expression plasmids for Flag-tagged truncated Ash2l (Ash2l-N-terminus: 1-172, the PHD domain; and Ash2l-C-terminus: 387-623, the SPRY domain) and full-length Ash2l (Ash2l-full length: 1-623; FIG. 2D) for various experiments. First, we overexpressed truncated and full-length Ash2l proteins in HEK293T cells, and subjected the nuclear extracts to immunoprecipitation (FIG. 2E). Rbbp5 associated with full-length Ash2l and Ash2l-C, which is consistent with previous findings (26). Remarkably, Oct4, Sox2, and Nanog associated with full-length Ash2l and Ash2l-N terminus, but not Ash2l-C terminus (FIG. 2E). To further assess the direct protein-protein interaction, Ash2l-N, Ash2l-C, and full-length Ash2l recombinant proteins were purified from bacteria (FIG. 2G) and independently incubated with various recombinant proteins, including Oct4, Sox2 and Nanog, and the p300 (Taz domain) protein. As shown in the in vitro pull-down assays with further analysis using Western blot or Coomassie staining (FIG. 2F and 2G), Ash2l directly interacted with the master stemness factors, Oct4, Sox2, and Nanog through its N terminus (1-172) (FIG. 2F and 2G). We then used the ZDOCK software to simulate the molecular docking between Ash2l and Oct4 and further predicted that several residues at the N terminus of Ash2l, including K117, W118, E180, K190, N217, and K220, may be crucial for the recognition and interaction with Oct4 (FIG. 2H). To determine which residue(s) of Ash2l was important for its interaction with Oct4, we used immunoprecipitation to assess the binding abilities of different Flag-tagged Ash2l mutants (K117A, W118A, E180A, K190A, N217A, and K220A) to Myc-tagged Oct4.

[2] = target: Sox2 (endogenous, mouse embryonic stem cells) (mouse, UniProt P48432 1-319); experiment: as above
Sequence of Sox2 (endogenous, mouse embryonic stem cells) (P48432 whole entry): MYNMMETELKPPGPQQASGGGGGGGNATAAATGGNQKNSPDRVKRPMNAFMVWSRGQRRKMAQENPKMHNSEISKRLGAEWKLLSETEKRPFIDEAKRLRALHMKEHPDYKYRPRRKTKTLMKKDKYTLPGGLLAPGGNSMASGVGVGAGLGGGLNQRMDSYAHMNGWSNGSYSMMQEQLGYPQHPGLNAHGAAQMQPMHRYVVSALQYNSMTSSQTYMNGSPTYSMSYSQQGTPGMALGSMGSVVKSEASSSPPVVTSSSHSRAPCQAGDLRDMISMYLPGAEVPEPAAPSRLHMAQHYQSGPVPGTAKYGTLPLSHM
Description: as §1, §2

[3] = target: B2; experiment: as above
Description: as §1, §2

[4] = target: T1, Flag-tagged full-length Ash2l (Ash2l-Full length: 1-623) (UniProt Q91X20 1-623); experiment: as above
T1 construct: range 1-623; Expressed in cells for co-IP, ChIP and reporter assays, or purified from E. coli BL21 for in vitro pull-downs; also called Flag-Ash2l^WT; Flag-Ash2l-F; not shown: 3xFlag tag of the p3xFlag plasmid
Description: as §1, §2

[5] = target: T2, Ash2l (endogenous, in nuclear extracts of mouse embryonic stem cells) (mouse, UniProt Q91X20 1-623, limits assumed); experiment: co-IP from gel filtration fraction 1 of ESC nuclear extract; also fraction 3 after Wdr5 knockdown (Ash2l still interacted with OSN)
T2 construct: Endogenous protein in gel filtration fractions of ESC nuclear extracts or on ESC chromatin
Description: as §1
Nuclear extraction was performed according to the manual instruction. Biochemical fractionation of ESC extracts into seven fractions was performed as described previously (Ang et al., 2011). Briefly, ESCs were lysed with lysis buffer and applied onto […] column (HiPrep 16/60 Sephycryl). […]
To further understand the role of Ash2l in stemness regulation, we used gel filtration analysis (FIG. 2A) followed by Western blot to investigate the profiles of molecular complexes in the nuclei of ESCs (FIG. 2B). […] Subsequently, we assessed these OSN-enriched (fraction 1), OSN/WRD-enriched (fraction 3), and WRD-enriched fractions (fraction 4) in an immunoprecipitation assay. […]

binding result [1] | binding result [2] | binding result [3] | binding result [4] | binding result [5] | Binder
binds | binds | binds |  |  | B1
 |  |  | binds | binds | B2
